This note sets out measurements from patent US7901902B2, “Methods and compositions for identifying a cellular immune response against prostate cancer” (BioSante Pharmaceuticals, Inc., priority 2006, dated 2011).

For the assay, the target named is HLA-A2 (Homo sapiens, UniProt P04439, D140Y/D185E/D98H/E176V/E277Q/G131W/G231S/I119V/I121R/I166T/I218V/L300P/L318F/N151K/N90K/P208A/P217A/Q86G/Q94H/R138H/R169H/T345S). Put plainly: HLA-A2 peptide binding assay on T2 cells (fluorescence index, flow cytometry). As to conditions: summary of Tables 2 and 3. (In general: Flow cytometry measures light scatter and fluorescence of single cells or particles in a stream.)
Regarding “GLAPLEVRV (Filamin-B peptides) [Filamin B peptide # 3, 9-mer peptide selected from the filamin-B polypeptide]”, the “upregulation of HLA-A2 expression (in words)” value (“upregulation” below) is “greatest upregulation”.

Regarding “GLVEPVNMV (Filamin-B peptides) [Filamin B peptide # 2, 9-mer peptide selected from the filamin-B polypeptide]”, the “upregulation” value was “moderate upregulation”.

Take “GQGDVMVFV (Filamin-B peptides) [Filamin B peptide # 6, 9-mer peptide selected from the filamin-B polypeptide]”: the “upregulation” value was “moderate upregulation”.

In the case of “KLILGLVWT (Filamin-B peptides) [Filamin B peptide # 7, 9-mer peptide selected from the filamin-B polypeptide]”, the “upregulation” value is on record as “upregulated HLA-A2 weakly”.

With “LILGLVWTL (Filamin-B peptides) [Filamin B peptide # 1, 9-mer peptide selected from the filamin-B polypeptide]”, the “upregulation” value was “greatest upregulation”.

On to “RLIALLEVL (Filamin-B peptides) [Filamin B peptide # 5, 9-mer peptide selected from the filamin-B polypeptide]”, for which the “upregulation” value is given as “greatest upregulation”.

For the sequence “SLQESGLKV (Filamin-B peptides) [Filamin B peptide # 4, 9-mer peptide selected from the filamin-B polypeptide]”, the “upregulation” value is recorded as “moderate upregulation”.
